“And” between values parts separate entries of the source, which are not always exact repeats. Equal entries are not always repeated.

The values that follow come from article PMC6698962 (Antibodies, 2018).

Test [1] addresses fluorescent-binding TNF nanobody (BTN-Kat) (Bactrian camel). The test is described as follows: SEC; Superose 6, 5 mg/mL protein, 20 mM NaPi pH 7.4, 150 mM NaCl, 0.5 mL/min; apparent molecular mass from calibration with standard proteins.
The target of test [2] is T1, human tumor necrosis factor (TNF) (Homo sapiens (huTNFKI mouse BMDM), UniProt P01375).
T1 construct: tumor necrosis factor, human, expressed in place of murine TNF in huTNFKI mice; stained inside fixed and permeabilised cells kept with brefeldin A; in the in vivo rows the hTNF of the knock-in mice; also called hTNF; human TNF
T1 sequence (P01375 whole entry): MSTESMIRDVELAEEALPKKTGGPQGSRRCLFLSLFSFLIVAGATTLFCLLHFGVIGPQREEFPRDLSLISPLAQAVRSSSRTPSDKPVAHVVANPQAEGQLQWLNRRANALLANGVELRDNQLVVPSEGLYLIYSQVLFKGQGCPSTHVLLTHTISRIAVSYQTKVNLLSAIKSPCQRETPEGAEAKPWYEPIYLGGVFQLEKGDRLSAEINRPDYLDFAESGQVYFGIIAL
The test is described as follows: flow cytometry on cells; intracellular cytokine staining (BD fixation and permeabilisation kit with GolgiPlug) of BMDM activated by LPS (100 ng/mL, 4 h) in the presence of brefeldin A; Fc-gamma receptor blocked; cells gated on F4/80; Katushka fluorescence read. Particulars: one partner purified.

Test [3] concerns the target T2, mouse tumor necrosis factor (TNF) (Mus musculus C57Bl/6, UniProt P06804).
T2 construct: tumor necrosis factor, mouse; stained inside fixed and permeabilised cells kept with brefeldin A; also called mouse TNF; murine TNF
The test is described as above. The conditions noted are these: one partner purified.

T2 sequence (P06804 whole entry): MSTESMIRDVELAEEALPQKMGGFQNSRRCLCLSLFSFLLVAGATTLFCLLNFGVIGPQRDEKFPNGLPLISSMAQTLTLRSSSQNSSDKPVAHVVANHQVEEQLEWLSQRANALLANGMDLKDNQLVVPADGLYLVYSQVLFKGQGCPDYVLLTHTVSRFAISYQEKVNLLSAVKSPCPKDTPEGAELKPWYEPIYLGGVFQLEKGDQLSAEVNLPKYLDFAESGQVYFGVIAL

B1: fluorescent-binding TNF nanobody (BTN-Kat) (VHH)
VHH: QVQLVESGGGSVQAGGSLRLSCAASGSTNSELCMAWFREVPGKEREVVALVNSDGRTIYGEAVKGRFTMSKDNAKNTLYLQMNSLKAEDTAMYYCAAGPGFFGRCNYNSVGQGTQVTVSS
notes: flexible glycine-serine linker; far-red fluorescent protein Katushka (TurboFP635); A mixture of oligomeric forms was used in all experiments; Expression and purification are in Method S1; also called VHH41 fused to Katushka; source: E. coli (BL21(DE3) is named in the title of Result S1), purified
With B1, in test [1], the stoichiometry N (in general, the number of molecules, sites or subunits per partner or assembly) was 2 and 3. Further, the binding result in test [2] and in test [3] was “binds” each time.
